Reference: patent US20100099610
Numbering of substitutions follows the chain as printed.

Tests used:
[1] = molecular target: wild type human growth hormone, P01241
Sequence of wild type human growth hormone, P01241 (P01241 27-217): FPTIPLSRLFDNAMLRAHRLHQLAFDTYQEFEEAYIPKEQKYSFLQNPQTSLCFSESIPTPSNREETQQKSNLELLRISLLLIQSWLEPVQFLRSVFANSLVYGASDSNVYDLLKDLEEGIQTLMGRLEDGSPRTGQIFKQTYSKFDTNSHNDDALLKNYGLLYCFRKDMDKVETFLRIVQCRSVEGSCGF

B1: Mature mTGase from Streptoverticillium ladakanum (protein)
chain: DSDERVTPPAEPLDRMPDPYRPSYGRAETIVNNYIRKWQQVYSHRDGRKQQMTEEQREWLSYGCVGVTWVNSGQYPTNRLAFAFFDEDKYKNELKNGRPRSGETRAEFEGRVAKDSFDEAKGFQRARDVASVMNKALENAHDEGAYLDNLKKELANGNDALRNEDARSPFYSALRNTPSFKDRNGGNHDPSKMKAVIYSKHFWSGQDRSGSSDKRKYGDPEAFRPDRGTGLVDMSRDRNIPRSPTSPGESFVNFDYGWFGAQTEADADKTVWTHGNHYHAPNGSLGAMHVYESKFRNWSDGYSDFDRGAYVVTFVPKSWNTAPDKVKQGWP
hGHQ40N, P01241
Sequence of hGHQ40N, P01241 (P01241 27-217 Q66N): as the sequence (P01241 27-217) above, with Q40N counted along it
  Activity towards hGHQ40N (RFU/sec/µg), dansyl-cadaverine fluorescence kinetics: 3.55 RFU/sec/µg
  HPLC peak area of product-Q141 (FIG. 3, top): The first peak (26.5 min, area 1238) is product-Q141
  product-Q141 after 30 minutes, FPLC areas normalized to 100 (normalized to 100): 77
hGHQ141N, P01241
Sequence of hGHQ141N, P01241 (P01241 27-217 Q167N): as the sequence (P01241 27-217) above, with Q141N counted along it
  Activity (RFU/sec/µg), dansyl-cadaverine fluorescence kinetics: 0.63 RFU/sec/µg
  HPLC peak area of product-Q40 (FIG. 3, bottom): The first peak (19.2 min, area 127) is product-Q40
  product-Q40 after 30 minutes, FPLC areas normalized to 100 (normalized to 100): 10

B2: Met-mTGase from S. mobaraensis (protein)
chain: MDSDDRVTPPAEPLDRMPDPYRPSYGRAETVVNNYIRKWQQVYSHRDGRKQQMTEEQREWLSYGCVGVTWVNSGQYPTNRLAFASFDEDRFKNELKNGRPRSGETRAEFEGRVAKESFDEEKGFQRAREVASVMNRALENAHDESAYLDNLKKELANGNDALRNEDARSPFYSALRNTPSFKERNGGNHDPSRMKAVIYSKHFWSGQDRSSSADKRKYGDPDAFRPAPGTGLVDMSRDRNIPRSPTSPGEGFVNFDYGWFGAQTEADADKTVWTHGNHYHAPNGSLGAMHVYESKFRNWSEGYSDFDRGAYVITFIPKSWNTAPDKVKQGWP
hGHQ40N, P01241
  Activity towards hGHQ40N (RFU/sec/µg), dansyl-cadaverine fluorescence kinetics: 5.44 RFU/sec/µg
hGHQ141N, P01241
  Activity (RFU/sec/µg), dansyl-cadaverine fluorescence kinetics: 1.24 RFU/sec/µg

B3: Met-mTGase from S. ladakanum (protein)
chain: MDSDERVTPPAEPLDRMPDPYRPSYGRAETIVNNYIRKWQQVYSHRDGRKQQMTEEQREWLSYGCVGVTWVNSGQYPTNRLAFAFFDEDKYKNELKNGRPRSGETRAEFEGRVAKDSFDEAKGFQRARDVASVMNKALENAHDEGAYLDNLKKELANGNDALRNEDARSPFYSALRNTPSFKDRNGGNHDPSKMKAVIYSKHFWSGQDRSGSSDKRKYGDPEAFRPDRGTGLVDMSRDRNIPRSPTSPGESFVNFDYGWFGAQTEADADKTVWTHGNHYHAPNGSLGAMHVYESKFRNWSDGYSDFDRGAYVVTFVPKSWNTAPDKVKQGWP
hGHQ40N, P01241
  Activity towards hGHQ40N (RFU/sec/µg), dansyl-cadaverine fluorescence kinetics: 4.74 RFU/sec/µg
hGHQ141N, P01241
  Activity (RFU/sec/µg), dansyl-cadaverine fluorescence kinetics: 0.8 RFU/sec/µg

B4: mTGase from Streptomyces mobaraensis (protein)
chain: DSDDRVTPPAEPLDRMPDPYRPSYGRAETVVNNYIRKWQQVYSHRDGRKQQMTEEQREWLSYGCVGVTWVNSGQYPTNRLAFASFDEDRFKNELKNGRPRSGETRAEFEGRVAKESFDEEKGFQRAREVASVMNRALENAHDESAYLDNLKKELANGNDALRNEDARSPFYSALRNTPSFKERNGGNHDPSRMKAVIYSKHFWSGQDRSSSADKRKYGDPDAFRPAPGTGLVDMSRDRNIPRSPTSPGEGFVNFDYGWFGAQTEADADKTVWTHGNHYHAPNGSLGAMHVYESKFRNWSEGYSDFDRGAYVITFIPKSWNTAPDKVKQGWP
hGHQ40N, P01241
  Activity towards hGHQ40N (RFU/sec/µg), dansyl-cadaverine fluorescence kinetics: 3.35 RFU/sec/µg
  HPLC peak area of product-Q141 (FIG. 4, top): The first peak (26.9 min, area 1283) is product-Q141
  product-Q141 after 30 minutes, FPLC areas normalized to 100 (normalized to 100): 71
hGHQ141N, P01241
  Activity (RFU/sec/µg), dansyl-cadaverine fluorescence kinetics: 0.98 RFU/sec/µg
  HPLC peak area of product-Q40 (FIG. 4, bottom): The first peak (19.5 min, area 296) is product-Q40
  product-Q40 after 30 minutes, FPLC areas normalized to 100 (normalized to 100): 19

B5: AlaPro-mTGase from S. ladakanum (protein)
chain: APDSDERVTPPAEPLDRMPDPYRPSYGRAETIVNNYIRKWQQVYSHRDGRKQQMTEEQREWLSYGCVGVTWVNSGQYPTNRLAFAFFDEDKYKNELKNGRPRSGETRAEFEGRVAKDSFDEAKGFQRARDVASVMNKALENAHDEGAYLDNLKKELANGNDALRNEDARSPFYSALRNTPSFKDRNGGNHDPSKMKAVIYSKHFWSGQDRSGSSDKRKYGDPEAFRPDRGTGLVDMSRDRNIPRSPTSPGESFVNFDYGWFGAQTEADADKTVWTHGNHYHAPNGSLGAMHVYESKFRNWSDGYSDFDRGAYVVTFVPKSWNTAPDKVKQGWP
hGHQ40N, P01241
  Activity towards hGHQ40N (RFU/sec/µg), dansyl-cadaverine fluorescence kinetics: 6.91 RFU/sec/µg
hGHQ141N, P01241
  Activity (RFU/sec/µg), dansyl-cadaverine fluorescence kinetics: 1.02 RFU/sec/µg

B6: GlyPro-mTGase_Y75F from S. ladakanum (protein)
chain: B5 chain with A1G, Y77F
[1]
  hGH conv. rate (%) by CE; reaction time 60 m, enzyme 12.9 µg/ml: 41%
  hGH conversion rate by CE (FIG. 2E); reaction time 75 m: hGH conversion rate=33%

B7: GlyPro-mTGase from S. ladakanum (protein)
chain: B5 chain with A1G
hGHQ40N, P01241
  Activity towards hGHQ40N (RFU/sec/µg), dansyl-cadaverine fluorescence kinetics: 4.25 RFU/sec/µg
hGHQ141N, P01241
  Activity (RFU/sec/µg), dansyl-cadaverine fluorescence kinetics: 0.48 RFU/sec/µg
[1]
  hGH conv. rate (%) by CE; reaction time 15 m, enzyme 16 µg/ml: 55%

B8: GlyPro-mTGase_Y62H_Y75F from S. ladakanum (protein)
chain: B5 chain with A1G, Y64H, Y77F, K329T
[1]
  RS (relative selectivity against AlaPro-mTGase from S. mobaraensis), separate experiment: 7.6
  Selectivity (Q141/Q40) by CE, separate experiment; reaction time 60 m, enzyme 8.8 µg/ml: 76.5
  hGH conv. rate (%) by CE, separate experiment; reaction time 60 m, enzyme 8.8 µg/ml: 38.1%
  hGH conv. rate (%) by CE; reaction time 120 m, enzyme 7 µg/ml: 49.4%

B9: GlyPro-mTGase_Y75N from S. ladakanum (protein)
chain: B5 chain with A1G, Y77N
[1]
  hGH conv. rate (%) by CE; reaction time 120 m, enzyme 6.5 µg/ml: 44%
  hGH conversion rate by CE (FIG. 2F); reaction time 90 m: hGH conversion rate=50%

B10: GlyPro-mTGase_Y62H_Y75N from S. ladakanum (protein)
chain: B5 chain with A1G, Y64H, Y77N
[1]
  hGH conv. rate (%) by CE; reaction time 75 m, enzyme 34.5 µg/ml: 38%

B11: AlaPro-mTGase from S. mobaraensis (protein)
chain: APDSDDRVTPPAEPLDRMPDPYRPSYGRAETVVNNYIRKWQQVYSHRDGRKQQMTEEQREWLSYGCVGVTWVNSGQYPTNRLAFASFDEDRFKNELKNGRPRSGETRAEFEGRVAKESFDEEKGFQRAREVASVMNRALENAHDESAYLDNLKKELANGNDALRNEDARSPFYSALRNTPSFKERNGGNHDPSRMKAVIYSKHFWSGQDRSSSADKRKYGDPDAFRPAPGTGLVDMSRDRNIPRSPTSPGEGFVNFDYGWFGAQTEADADKTVWTHGNHYHAPNGSLGAMHVYESKFRNWSEGYSDFDRGAYVITFIPKSWNTAPDKVKQGWP
hGHQ40N, P01241
  Activity towards hGHQ40N (RFU/sec/µg), dansyl-cadaverine fluorescence kinetics: 5.05 RFU/sec/µg
hGHQ141N, P01241
  Activity (RFU/sec/µg), dansyl-cadaverine fluorescence kinetics: 1.56 RFU/sec/µg
[1]
  conversion rate by CE (FIG. 2B); reaction time 30 minutes: conversion rate=32%
  hGH conv. rate (%) by CE, reference of the separate experiment; reaction time 45 m, enzyme 4.6 µg/ml: 39%
  hGH conv. rate (%) by CE; reaction time 30 m, enzyme 9.6 µg/ml: 33%

B12: GlyPro-mTGase from S. mobaraensis (protein)
chain: B11 chain with A1G
hGHQ40N, P01241
  Activity towards hGHQ40N (RFU/sec/µg), dansyl-cadaverine fluorescence kinetics: 4.28 RFU/sec/µg
hGHQ141N, P01241
  Activity (RFU/sec/µg), dansyl-cadaverine fluorescence kinetics: 1.13 RFU/sec/µg
